Values of other authors in patent publication US20030166570A1, “Peptide and its use in the treatment of hyperpigmentation conditions” (priority 2001, published 2003).
Ends that are not written are not given here.

Biological target: MC-1 receptor (Homo sapiens, UniProt Q01726)
Conditions: rank order; physiologic range for signal transduction

Sequence of MC-1 receptor (Q01726 whole entry): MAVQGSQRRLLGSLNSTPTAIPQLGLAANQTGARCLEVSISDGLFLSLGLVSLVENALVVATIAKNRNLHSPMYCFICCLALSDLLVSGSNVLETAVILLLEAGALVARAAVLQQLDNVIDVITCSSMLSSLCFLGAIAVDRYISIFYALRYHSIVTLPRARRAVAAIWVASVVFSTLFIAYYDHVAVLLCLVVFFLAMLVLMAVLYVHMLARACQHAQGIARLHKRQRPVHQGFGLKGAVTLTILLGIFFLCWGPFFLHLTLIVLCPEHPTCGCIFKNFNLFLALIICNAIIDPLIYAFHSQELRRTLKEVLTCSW

Substance	relative affinities for the MC-1 receptor and stimulation of cAMP
ACTH 1-10: peptide fragment defined by residues 1-10 of ACTH	no activity
ACTH: 39-mer polypeptide hormone expressed in skin melanocytes and keratinocytes, derived from POMC (SYSMEHFRWGKPVGKKRRPVKVYPNGAEDESAEAFPLEF-NH2; UniProt P01189 138-176, looked up)	ACTH 1-17=α-MSH>ACTH
Ac-Ser^1-Tyr^2-Ser^3-Met^4-Glu^5-His^6-Phe^7-Arg^8-Trp^9-Gly^10-Lys^11-Pro^12-Val^13-NH2 [α-MSH]	ACTH 1-17=α-MSH>ACTH
